± gives the uncertainty stated by the source.
B1: library; numbered along this chain (parent)
chain: MEVVDPQQLGMFTEGELMSVGMDTFIHRIDSTEVIYQPRRKRAKLIGKYLMGDLLGEGSYGKVKEVLDSETLCRRAVKILKKKKLRRIPNGEANVKKEIQLLRRLRHKNVIQLVDVLYNEEKQKMYMVMEYCVCGMQEMLDSVPEKRFPVCQAHGYFCQLIDGLEYLHSQGIVHKDIKPGNLLLTTGGTLKISDLGVAEALHPFAADDTCRTSQGSPAFQPPEIANGLDTFSGFKVDIWSAGVTLYNITTGLYPFEGDNIYKLFENIGKGSYAIPGDCGPPLSDLLKGMLEYEPAKRFSIRQIRQHSWFRKKHPPAEAPVPIPPSPDTKDRWRSMTVVPYLEDLHGADEDEDLFDIEDDIIYTQDFTVPGQVPEEEASHNGQRRGLPKAVCMNGTEAAQLSTKSRAEGRAPNPARKACSASSKIRRLSACKQQ

Variants of: B1
Assay: STK11 functional score (HeLa growth suppression), rescaled enrichment; synonymous median = 1, nonsense median = 0 (normalised score)
Settings: with HeLa; variant type: missense
Procedure, shortened: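 The values are functional scores: wild-type-corrected log ratios of post- versus pre-selection abundance, rescaled to synonymous and nonsense medians, merged over codons and replicate transfections, and carrying bootstrapped error. They derive from codon-randomised (POPCode), codon-optimised STK11 libraries that Bxb1 integrated at an AAVS1 landing pad in HeLa, with three transfections for each of three regions. Sequencing of tiled gDNA amplicons ran on NextSeq, at ~2 million reads per tile.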

Compared with A417M, F298W is lower in STK11 functional score: 1.47 ± 0.12 for the first, 0.876 ± 0.092 for the second.

Going from V173L to M136Y, the STK11 functional score falls from 0.137 ± 0.13 to -0.238 ± 0.083.

C391L and C391S are within error of each other in STK11 functional score: 1.54 ± 0.24 for the first, 0.743 ± 0.67 for the second.

K97N and K97E are within error of each other in STK11 functional score: 1.21 ± 0.42 for the first, 1.42 ± 0.45 for the second.

Going from Y60L to D350Y, the STK11 functional score rises from 0.748 ± 0.29 to 1.45 ± 0.34.

L9S and L9Y are within error of each other in STK11 functional score: 1.37 ± 0.19 for the first, 1.56 ± 0.37 for the second.

First: H202E
Second: S325Y
The STK11 functional score of the first is higher: 1.47 ± 0.23 for the first, 0.029 ± 0.42 for the second.

S325E and E138D are within error of each other in STK11 functional score: 1.24 ± 0.67 for the first, 1.1 ± 0.21 for the second.

Compared with G135E, G135F is lower in STK11 functional score: 1.45 ± 0.13 for the first, 1.09 ± 0.08 for the second.

G135A and G135C are within error of each other in STK11 functional score: 1.56 ± 0.28 for the first, 1.54 ± 0.27 for the second.

R409G and I29S are within error of each other in STK11 functional score: 1.25 ± 0.32 for the first, 1.32 ± 0.17 for the second.

I29M and C158S are within error of each other in STK11 functional score: 0.901 ± 0.47 for the first, 0.627 ± 0.15 for the second.

E199Y and E199H are within error of each other in STK11 functional score: 1.04 ± 0.34 for the first, 1.39 ± 0.18 for the second.

N393S and N393K are within error of each other in STK11 functional score: 1.09 ± 0.52 for the first, 0.96 ± 0.51 for the second.

N393D and M51A are within error of each other in STK11 functional score: 1.07 ± 0.26 for the first, 1.45 ± 0.6 for the second.

Going from F309R to L102E, the STK11 functional score rises from 0.0957 ± 0.13 to 1.51 ± 0.11.

Q364M and T230M are within error of each other in STK11 functional score: 0.768 ± 0.13 for the first, 0.971 ± 0.28 for the second.

Going from T230V to T230F, the STK11 functional score falls from 1.5 ± 0.18 to 0.961 ± 0.1.

L353V and T367E are within error of each other in STK11 functional score: 1.42 ± 0.31 for the first, 1.5 ± 0.15 for the second.

First: P89N
Second: D194Y
The STK11 functional score of the first is higher: 1.67 ± 0.19 for the first, -0.089 ± 0.093 for the second.

A398L and D352V are within error of each other in STK11 functional score: 1.16 ± 0.15 for the first, 1.12 ± 0.24 for the second.

A225G and E349V are within error of each other in STK11 functional score: 1.05 ± 0.26 for the first, 1.16 ± 0.37 for the second.

E349T and E349C are within error of each other in STK11 functional score: 1.51 ± 0.13 for the first, 1.1 ± 0.42 for the second.

Y126L and R39T are within error of each other in STK11 functional score: 0.421 ± 0.13 for the first, 0.548 ± 0.26 for the second.

R106S and P413N are within error of each other in STK11 functional score: 1.49 ± 0.16 for the first, 1.6 ± 0.11 for the second.

S299I and S299E are within error of each other in STK11 functional score: 1.25 ± 0.34 for the first, 1.56 ± 0.15 for the second.

First: D284L
Second: D284C
The STK11 functional score of the first is higher: 0.935 ± 0.21 for the first, 0.513 ± 0.086 for the second.

First: F157V
Second: T402E
The STK11 functional score of the first is lower: -0.0226 ± 0.15 for the first, 1.59 ± 0.24 for the second.

Going from V116W to E33T, the STK11 functional score rises from 0.541 ± 0.079 to 1.69 ± 0.25.

A414L and R304K are within error of each other in STK11 functional score: 1.16 ± 0.34 for the first, 1.31 ± 0.65 for the second.

G227S and G227M are within error of each other in STK11 functional score: 1.49 ± 0.38 for the first, 1.69 ± 0.22 for the second.

Going from Y156M to L85G, the STK11 functional score falls from 1.69 ± 0.25 to 0.21 ± 0.094.

L85V and G279S are within error of each other in STK11 functional score: 1.15 ± 0.15 for the first, 1.25 ± 0.12 for the second.

G279R and A218H are within error of each other in STK11 functional score: 0.829 ± 0.35 for the first, 0.853 ± 0.69 for the second.

First: A218P
Second: Q382P
The STK11 functional score of the first is lower: 0.529 ± 0.093 for the first, 1.35 ± 0.33 for the second.

Q382R and P411N are within error of each other in STK11 functional score: 1.48 ± 0.17 for the first, 1.55 ± 0.18 for the second.

First: P179D
Second: C210D
The STK11 functional score of the first is lower: -0.213 ± 0.11 for the first, 1.37 ± 0.26 for the second.

First: C278I
Second: S240E
The STK11 functional score of the first is lower: 0.402 ± 0.12 for the first, 1.52 ± 0.24 for the second.

F255E and F255H are within error of each other in STK11 functional score: 0.827 ± 0.37 for the first, 0.97 ± 0.25 for the second.

Compared with V128N, V128S is lower in STK11 functional score: 1.28 ± 0.32 for the first, 0.466 ± 0.12 for the second.

First: C73A
Second: M129G
The STK11 functional score of the first is higher: 1.69 ± 0.36 for the first, 0.986 ± 0.11 for the second.

M129T and R103Y are within error of each other in STK11 functional score: 0.97 ± 0.14 for the first, 1.15 ± 0.18 for the second.

K269Y and P321I are within error of each other in STK11 functional score: 1.33 ± 0.36 for the first, 1.53 ± 0.16 for the second.

First: A205P
Second: T395S
The STK11 functional score of the first is lower: 0.302 ± 0.19 for the first, 0.942 ± 0.26 for the second.

T395A and T336Y are within error of each other in STK11 functional score: 0.877 ± 0.44 for the first, 1.17 ± 0.15 for the second.

T336H and T336I are within error of each other in STK11 functional score: 1.59 ± 0.14 for the first, 1.35 ± 0.33 for the second.

Compared with S142N, S142W is lower in STK11 functional score: 1.16 ± 0.33 for the first, 0.385 ± 0.093 for the second.

I322R and K403R are within error of each other in STK11 functional score: 1.11 ± 0.2 for the first, 1.03 ± 0.69 for the second.

R415I and I99S are within error of each other in STK11 functional score: 0.924 ± 0.23 for the first, 0.869 ± 0.37 for the second.

Compared with Q137N, Q137E is lower in STK11 functional score: 1.62 ± 0.28 for the first, 0.452 ± 0.43 for the second.

Going from V110H to D141S, the STK11 functional score rises from 0.958 ± 0.11 to 1.21 ± 0.081.

L45G and M11T are within error of each other in STK11 functional score: 1.25 ± 0.18 for the first, 1.23 ± 0.65 for the second.

Compared with G10V, V368T is higher in STK11 functional score: 0.971 ± 0.18 for the first, 1.56 ± 0.18 for the second.

V368G and K312F are within error of each other in STK11 functional score: 1.38 ± 0.2 for the first, 0.982 ± 0.26 for the second.

K312T and A410E are within error of each other in STK11 functional score: 1.5 ± 0.27 for the first, 1.34 ± 0.14 for the second.

First: L400Y
Second: P222E
The STK11 functional score of the first is higher: 1.55 ± 0.2 for the first, 0.0466 ± 0.58 for the second.

A318R and G346E are within error of each other in STK11 functional score: 1.43 ± 0.34 for the first, 1.35 ± 0.74 for the second.

Going from E130G to E130S, the STK11 functional score rises from 0.45 ± 0.39 to 1.4 ± 0.09.

H313W and T328L are within error of each other in STK11 functional score: 1.05 ± 0.35 for the first, 1.03 ± 0.62 for the second.

Compared with T328A, Y131A is lower in STK11 functional score: 1.62 ± 0.16 for the first, 0.676 ± 0.19 for the second.

Compared with V372A, W308A is lower in STK11 functional score: 1.48 ± 0.16 for the first, 0.0826 ± 0.26 for the second.

Compared with C134L, E342Q is higher in STK11 functional score: 0.479 ± 0.083 for the first, 1.23 ± 0.3 for the second.

E342L and I260L are within error of each other in STK11 functional score: 1.26 ± 0.25 for the first, 1.28 ± 0.27 for the second.

Compared with H379F, L80G is lower in STK11 functional score: 1.1 ± 0.23 for the first, 0.429 ± 0.082 for the second.

First: L113R
Second: Q220Y
The STK11 functional score of the first is lower: 0.684 ± 0.14 for the first, 1.33 ± 0.15 for the second.

Going from H27G to L263G, the STK11 functional score falls from 1.54 ± 0.21 to 0.983 ± 0.18.

L263C and P144S are within error of each other in STK11 functional score: 1.11 ± 0.25 for the first, 0.825 ± 0.15 for the second.

Compared with V114W, K62D is higher in STK11 functional score: 0.805 ± 0.081 for the first, 1.61 ± 0.2 for the second.

First: T24F
Second: T24I
The STK11 functional score of the first is higher: 1.37 ± 0.11 for the first, 1.02 ± 0.2 for the second.

Going from E98H to L290H, the STK11 functional score falls from 0.617 ± 0.08 to -0.09 ± 0.07.

L101V and K108G are within error of each other in STK11 functional score: 0.836 ± 0.1 for the first, 0.95 ± 0.13 for the second.

P369D and P369A are within error of each other in STK11 functional score: 1.61 ± 0.15 for the first, 1.43 ± 0.18 for the second.

P369S and P369R are within error of each other in STK11 functional score: 1.51 ± 0.22 for the first, 1.44 ± 0.18 for the second.

First: P369H
Second: D330L
The STK11 functional score of the first is lower: 0.727 ± 0.16 for the first, 1.59 ± 0.16 for the second.

K262E and P324M are within error of each other in STK11 functional score: 1.31 ± 0.85 for the first, 0.794 ± 0.7 for the second.

P324W and L201R are within error of each other in STK11 functional score: 0.731 ± 0.099 for the first, 0.929 ± 0.2 for the second.

Q100S and Y272R are within error of each other in STK11 functional score: 1.1 ± 0.18 for the first, 0.701 ± 0.25 for the second.

Y272N and P387M are within error of each other in STK11 functional score: 1.71 ± 0.45 for the first, 1.44 ± 0.11 for the second.

W239D and W239R are within error of each other in STK11 functional score: -0.00743 ± 0.45 for the first, 0.273 ± 0.15 for the second.

E351T and E70I are within error of each other in STK11 functional score: 1.52 ± 0.18 for the first, 1.54 ± 0.19 for the second.

D343R and E374F are within error of each other in STK11 functional score: 1.11 ± 0.2 for the first, 1.33 ± 0.3 for the second.

S19P and S19A are within error of each other in STK11 functional score: 1.32 ± 0.23 for the first, 0.891 ± 0.38 for the second.

A153E and G242D are within error of each other in STK11 functional score: 0.243 ± 0.093 for the first, 0.0263 ± 0.13 for the second.

Work on G242N yielded an STK11 functional score of -0.133 ± 0.22.

From the supplement of paper PMC12338614
